Results from US20130011380A1.
“And” between values parts separate entries of the source, which are not always exact repeats. Equal entries are not always repeated.

Legend:
Experiment in all cases: anti-Flag IP-MS, mES nuclear extract
[1] = target: Akr1b3 (mouse) (UniProt P45376)
[2] = target: Alpl (mouse) (UniProt P09242)
[3] = target: Cct2 (mouse) (UniProt P80314)
[4] = target: Col18a1 (mouse) (UniProt P39061)
[5] = target: Cse1l (mouse) (UniProt Q9ERK4)
[6] = target: Ctbp2 (mouse) (UniProt P56546)
[7] = target: Cttn (mouse) (UniProt Q60598)
[8] = target: Dnaja3 (mouse) (UniProt Q99M87)
[9] = target: Dnmt3a (mouse) (UniProt O88508)
[10] = target: Dnmt3b (mouse) (UniProt O88509)
[11] = target: Eno2 (mouse) (UniProt P17183)
[12] = target: Eprs (mouse) (UniProt Q8CGC7)
[13] = target: Hells (mouse) (UniProt Q60848)
[14] = target: Hspa5 (mouse) (UniProt P20029)
[15] = target: Hspd1 (mouse) (UniProt P63038)
[16] = target: Impdh2 (mouse) (UniProt P24547)
[17] = target: Kars (mouse) (UniProt Q99MN1)
[18] = target: LOC100045999; Ran (mouse) (UniProt P62827)
[19] = target: Mcm2 (mouse) (UniProt P97310)
[20] = target: Mcm3 (mouse) (UniProt P25206)
[21] = target: Nup160 (mouse) (UniProt Q9Z0W3)
[22] = target: Pfn1 (mouse) (UniProt P62962)
[23] = target: Pkm2 (mouse) (UniProt P52480)
[24] = target: Plec1 (mouse) (UniProt Q9QXS1)
[25] = target: Psmd2 (mouse) (UniProt Q8VDM4)
[26] = target: Pum2 (mouse) (UniProt Q80U58)
[27] = target: Rcc1 (mouse) (UniProt Q8VE37)
[28] = target: Rpn1 (mouse) (UniProt Q91YQ5)
[29] = target: Ruvbl1 (mouse) (UniProt P60122)
[30] = target: Ruvbl2 (mouse) (UniProt Q9WTM5)
[31] = target: Smarca4 (mouse) (UniProt Q3TKT4)
[32] = target: Smarcad1 (mouse) (UniProt Q04692)
[33] = target: Spnb2 (mouse) (UniProt Q62261)
[34] = target: Ssr1 (mouse) (UniProt Q9CY50)
[35] = target: Supt5h (mouse) (UniProt O55201)
[36] = target: Tex10 (mouse) (UniProt Q3URQ0)
[37] = target: Uba1 (mouse) (UniProt Q02053)
[38] = target: Utf1 (mouse) (UniProt Q6J1H4)
[39] = target: Zc3h18 (mouse) (UniProt Q0P678)
[40] = target: Zfp281 (mouse) (UniProt Q99LI5)

Sequence of Alpl (mouse) (P09242 18-501 limits assumed): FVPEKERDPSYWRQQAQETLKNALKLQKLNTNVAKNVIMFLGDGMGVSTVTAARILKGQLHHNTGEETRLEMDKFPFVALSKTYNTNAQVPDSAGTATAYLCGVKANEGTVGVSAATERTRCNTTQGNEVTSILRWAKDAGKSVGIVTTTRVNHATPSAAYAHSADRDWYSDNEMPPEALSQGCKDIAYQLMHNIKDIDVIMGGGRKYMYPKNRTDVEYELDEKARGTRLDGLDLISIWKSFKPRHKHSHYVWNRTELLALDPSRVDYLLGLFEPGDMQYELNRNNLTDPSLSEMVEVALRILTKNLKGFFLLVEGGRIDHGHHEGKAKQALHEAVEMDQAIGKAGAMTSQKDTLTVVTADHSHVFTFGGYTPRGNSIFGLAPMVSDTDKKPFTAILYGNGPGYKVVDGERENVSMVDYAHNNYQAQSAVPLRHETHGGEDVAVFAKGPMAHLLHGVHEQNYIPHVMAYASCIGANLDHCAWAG
Sequence of Mcm2 (mouse) (P97310 2-904 limits assumed): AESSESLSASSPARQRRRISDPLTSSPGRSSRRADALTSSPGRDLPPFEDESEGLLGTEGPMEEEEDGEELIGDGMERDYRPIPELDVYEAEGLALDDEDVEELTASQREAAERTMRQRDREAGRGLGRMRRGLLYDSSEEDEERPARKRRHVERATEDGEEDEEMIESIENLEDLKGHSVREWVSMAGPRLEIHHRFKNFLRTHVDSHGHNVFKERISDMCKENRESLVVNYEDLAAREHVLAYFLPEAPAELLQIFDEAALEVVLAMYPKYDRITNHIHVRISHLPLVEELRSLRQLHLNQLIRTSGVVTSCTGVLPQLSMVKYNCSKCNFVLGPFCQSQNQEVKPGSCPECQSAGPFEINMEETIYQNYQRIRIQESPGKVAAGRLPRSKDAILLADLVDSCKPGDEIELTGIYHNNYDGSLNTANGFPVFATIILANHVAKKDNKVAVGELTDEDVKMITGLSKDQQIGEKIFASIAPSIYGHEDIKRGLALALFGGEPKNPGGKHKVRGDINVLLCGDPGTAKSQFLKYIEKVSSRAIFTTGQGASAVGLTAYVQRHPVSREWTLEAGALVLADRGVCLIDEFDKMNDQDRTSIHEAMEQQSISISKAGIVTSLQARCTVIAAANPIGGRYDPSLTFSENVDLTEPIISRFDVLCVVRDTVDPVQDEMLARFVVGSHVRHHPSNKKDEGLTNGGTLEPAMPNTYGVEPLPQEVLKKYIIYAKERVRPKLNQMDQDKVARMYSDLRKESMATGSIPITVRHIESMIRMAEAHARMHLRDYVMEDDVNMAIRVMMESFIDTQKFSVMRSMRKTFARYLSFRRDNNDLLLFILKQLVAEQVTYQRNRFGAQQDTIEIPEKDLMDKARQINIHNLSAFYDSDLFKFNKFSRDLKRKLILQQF
Sequence of Zc3h18 (mouse) (Q0P678 whole entry): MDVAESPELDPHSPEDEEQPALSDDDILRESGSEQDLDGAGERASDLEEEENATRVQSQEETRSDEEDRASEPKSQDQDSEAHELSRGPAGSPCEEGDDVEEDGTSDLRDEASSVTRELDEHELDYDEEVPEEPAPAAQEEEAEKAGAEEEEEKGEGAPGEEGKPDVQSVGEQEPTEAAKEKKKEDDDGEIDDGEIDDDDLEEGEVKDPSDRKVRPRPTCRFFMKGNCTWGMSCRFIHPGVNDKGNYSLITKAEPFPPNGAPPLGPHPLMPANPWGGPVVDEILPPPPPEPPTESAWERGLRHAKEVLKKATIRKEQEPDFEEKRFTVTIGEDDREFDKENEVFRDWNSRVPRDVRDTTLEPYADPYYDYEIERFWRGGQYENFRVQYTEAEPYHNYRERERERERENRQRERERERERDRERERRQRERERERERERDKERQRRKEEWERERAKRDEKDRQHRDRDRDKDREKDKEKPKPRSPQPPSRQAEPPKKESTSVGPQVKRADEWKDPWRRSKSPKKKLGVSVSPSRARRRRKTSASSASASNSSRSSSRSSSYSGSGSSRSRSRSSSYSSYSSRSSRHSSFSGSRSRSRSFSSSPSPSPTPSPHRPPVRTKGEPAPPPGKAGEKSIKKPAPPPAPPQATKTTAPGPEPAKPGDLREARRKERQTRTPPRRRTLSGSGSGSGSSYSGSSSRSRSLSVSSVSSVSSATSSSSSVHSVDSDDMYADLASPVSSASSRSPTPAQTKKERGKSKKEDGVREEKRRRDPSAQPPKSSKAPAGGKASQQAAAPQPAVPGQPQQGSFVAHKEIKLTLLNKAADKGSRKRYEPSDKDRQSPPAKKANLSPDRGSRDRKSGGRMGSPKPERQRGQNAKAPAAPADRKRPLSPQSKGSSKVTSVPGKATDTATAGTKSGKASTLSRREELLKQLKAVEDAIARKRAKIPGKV
Sequence of Eno2 (mouse) (P17183 2-434 limits assumed): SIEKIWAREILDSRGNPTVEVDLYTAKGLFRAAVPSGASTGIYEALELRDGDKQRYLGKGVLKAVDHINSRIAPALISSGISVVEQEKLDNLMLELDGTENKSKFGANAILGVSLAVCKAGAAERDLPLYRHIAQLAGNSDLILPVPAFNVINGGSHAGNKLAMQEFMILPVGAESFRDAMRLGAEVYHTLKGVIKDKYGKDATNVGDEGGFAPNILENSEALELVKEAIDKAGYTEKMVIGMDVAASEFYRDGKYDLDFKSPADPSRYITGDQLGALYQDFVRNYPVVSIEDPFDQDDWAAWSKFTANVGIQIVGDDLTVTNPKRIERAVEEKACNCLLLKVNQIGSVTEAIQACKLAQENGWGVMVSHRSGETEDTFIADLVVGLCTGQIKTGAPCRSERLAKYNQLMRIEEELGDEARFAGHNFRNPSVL
Sequence of Kars (mouse) (Q99MN1 2-595 limits assumed): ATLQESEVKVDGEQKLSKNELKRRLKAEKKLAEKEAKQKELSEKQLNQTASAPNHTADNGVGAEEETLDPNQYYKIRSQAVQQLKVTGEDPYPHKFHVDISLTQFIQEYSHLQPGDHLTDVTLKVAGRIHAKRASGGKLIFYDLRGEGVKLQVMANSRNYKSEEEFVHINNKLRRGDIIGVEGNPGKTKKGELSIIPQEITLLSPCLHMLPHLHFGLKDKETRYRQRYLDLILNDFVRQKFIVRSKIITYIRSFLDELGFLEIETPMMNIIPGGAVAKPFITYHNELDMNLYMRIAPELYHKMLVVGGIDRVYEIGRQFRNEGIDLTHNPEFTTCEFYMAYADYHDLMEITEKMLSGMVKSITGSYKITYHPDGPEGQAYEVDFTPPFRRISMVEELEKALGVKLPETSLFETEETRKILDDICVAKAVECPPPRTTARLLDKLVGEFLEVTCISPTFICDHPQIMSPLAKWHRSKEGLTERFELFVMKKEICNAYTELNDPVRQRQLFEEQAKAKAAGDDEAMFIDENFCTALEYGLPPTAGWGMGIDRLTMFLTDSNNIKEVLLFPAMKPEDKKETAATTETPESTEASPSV
Sequence of Utf1 (mouse) (Q6J1H4 whole entry): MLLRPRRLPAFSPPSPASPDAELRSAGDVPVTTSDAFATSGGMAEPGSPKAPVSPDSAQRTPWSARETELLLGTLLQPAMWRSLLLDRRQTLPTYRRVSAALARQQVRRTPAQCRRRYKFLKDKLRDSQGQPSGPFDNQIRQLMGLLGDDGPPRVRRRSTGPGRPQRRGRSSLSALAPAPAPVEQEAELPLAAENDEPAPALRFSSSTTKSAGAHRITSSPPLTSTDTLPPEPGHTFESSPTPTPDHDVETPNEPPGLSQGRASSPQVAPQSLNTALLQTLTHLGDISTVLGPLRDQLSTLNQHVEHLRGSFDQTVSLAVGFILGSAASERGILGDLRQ
Sequence of Ruvbl2 (mouse) (Q9WTM5 2-463 limits assumed): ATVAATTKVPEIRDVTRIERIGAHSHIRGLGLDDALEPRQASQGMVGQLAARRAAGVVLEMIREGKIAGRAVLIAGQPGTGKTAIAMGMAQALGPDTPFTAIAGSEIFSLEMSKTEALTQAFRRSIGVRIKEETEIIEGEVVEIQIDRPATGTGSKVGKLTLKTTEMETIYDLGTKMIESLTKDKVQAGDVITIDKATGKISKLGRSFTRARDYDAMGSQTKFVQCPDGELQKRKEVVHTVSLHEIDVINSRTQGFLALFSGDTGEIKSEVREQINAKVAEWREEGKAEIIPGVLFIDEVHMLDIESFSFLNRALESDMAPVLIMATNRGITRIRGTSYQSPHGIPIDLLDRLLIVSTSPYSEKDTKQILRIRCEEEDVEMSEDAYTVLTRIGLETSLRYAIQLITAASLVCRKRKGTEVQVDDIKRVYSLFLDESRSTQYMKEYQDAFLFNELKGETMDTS
Sequence of Hspa5 (mouse) (P20029 20-655 limits assumed): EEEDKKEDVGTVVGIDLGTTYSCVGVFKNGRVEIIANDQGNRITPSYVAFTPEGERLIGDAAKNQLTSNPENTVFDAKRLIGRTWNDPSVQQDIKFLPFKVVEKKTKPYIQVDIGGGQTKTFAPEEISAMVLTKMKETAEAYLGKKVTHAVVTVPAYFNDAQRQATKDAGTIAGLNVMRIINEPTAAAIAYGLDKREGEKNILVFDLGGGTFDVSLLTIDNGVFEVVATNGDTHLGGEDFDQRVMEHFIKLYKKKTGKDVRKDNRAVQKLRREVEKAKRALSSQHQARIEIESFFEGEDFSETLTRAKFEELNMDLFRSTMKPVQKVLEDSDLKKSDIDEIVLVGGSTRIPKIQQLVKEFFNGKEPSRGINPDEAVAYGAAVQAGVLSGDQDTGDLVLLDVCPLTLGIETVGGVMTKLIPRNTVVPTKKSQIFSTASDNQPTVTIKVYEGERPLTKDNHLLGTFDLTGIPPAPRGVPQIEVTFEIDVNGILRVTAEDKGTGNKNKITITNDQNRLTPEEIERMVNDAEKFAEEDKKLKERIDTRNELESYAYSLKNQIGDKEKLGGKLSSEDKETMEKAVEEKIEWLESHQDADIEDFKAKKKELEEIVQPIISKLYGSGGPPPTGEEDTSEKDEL
Sequence of human AID containing two tandem Flag tags (Flag-human AID) (Q9GZX7 whole entry): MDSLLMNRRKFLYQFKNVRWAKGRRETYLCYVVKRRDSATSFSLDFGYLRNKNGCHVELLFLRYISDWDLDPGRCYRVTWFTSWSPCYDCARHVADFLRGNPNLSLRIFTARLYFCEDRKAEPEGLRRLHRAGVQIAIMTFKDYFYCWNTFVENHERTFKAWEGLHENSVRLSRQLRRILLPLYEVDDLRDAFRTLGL

2x Flag tag only (control) (peptide)
Nucleus peptide [1]: 2 peptides | Nucleus spectra [1]: 2 spectra | Nucleus peptide [2]: 5 peptides | Nucleus spectra [2]: 10 spectra | Nucleus peptide [3]: 2 peptides | Nucleus spectra [3]: 4 spectra | Nucleus peptide [4]: 1 peptides | Nucleus spectra [4]: 1 spectra | Nucleus peptide [5]: 0 peptides | Nucleus spectra [5]: 0 spectra | Nucleus peptide [6]: 2 peptides | Nucleus spectra [6]: 4 spectra | Nucleus peptide [7]: 1 peptides | Nucleus spectra [7]: 2 spectra | Nucleus peptide [8]: 1 peptides | Nucleus spectra [8]: 2 spectra | Nucleus peptide [9]: 0 peptides | Nucleus spectra [9]: 0 spectra | Nucleus peptide [10]: 0 peptides | Nucleus spectra [10]: 0 spectra | Nucleus peptide [11]: 1 peptides | Nucleus spectra [11]: 2 spectra | Nucleus peptide [12]: 3 peptides | Nucleus spectra [12]: 3 spectra | Nucleus peptide [13]: 1 peptides | Nucleus spectra [13]: 1 spectra | Nucleus peptide [14]: 10 peptides | Nucleus spectra [14]: 13 spectra | Nucleus peptide [15]: 5 peptides | Nucleus spectra [15]: 11 spectra | Nucleus peptide [16]: 8 peptides | Nucleus spectra [16]: 17 spectra | Nucleus peptide [17]: 0 peptides | Nucleus spectra [17]: 0 spectra | Nucleus peptide [18]: 1 peptides | Nucleus spectra [18]: 2 spectra | Nucleus peptide [19]: 4 peptides | Nucleus spectra [19]: 5 spectra | Nucleus peptide [20]: 5 peptides | Nucleus spectra [20]: 7 spectra | Nucleus peptide [21]: 6 peptides | Nucleus spectra [21]: 11 spectra | Nucleus peptide [22]: 4 peptides | Nucleus spectra [22]: 9 spectra | Nucleus peptide [23]: 1 peptides | Nucleus spectra [23]: 1 spectra | Nucleus peptide [24]: 15 peptides | Nucleus spectra [24]: 20 spectra | Nucleus peptide [25]: 1 peptides | Nucleus spectra [25]: 1 spectra | Nucleus peptide [26]: 1 peptides | Nucleus spectra [26]: 1 spectra | Nucleus peptide [27]: 3 peptides | Nucleus spectra [27]: 6 spectra | Nucleus peptide [28]: 0 peptides | Nucleus spectra [28]: 0 spectra | Nucleus peptide [29]: 9 peptides | Nucleus spectra [29]: 17 spectra | Nucleus peptide [30]: 4 peptides | Nucleus spectra [30]: 10 spectra | Nucleus peptide [31]: 2 peptides | Nucleus spectra [31]: 2 spectra | Nucleus peptide [32]: 1 peptides | Nucleus spectra [32]: 1 spectra | Nucleus peptide [33]: 7 peptides | Nucleus spectra [33]: 11 spectra | Nucleus peptide [34]: 0 peptides | Nucleus spectra [34]: 0 spectra | Nucleus peptide [35]: 1 peptides | Nucleus spectra [35]: 1 spectra | Nucleus peptide [36]: 1 peptides | Nucleus spectra [36]: 3 spectra | Nucleus peptide [37]: 3 peptides | Nucleus spectra [37]: 5 spectra | Nucleus peptide [38]: 4 peptides | Nucleus spectra [38]: 6 spectra | Nucleus peptide [39]: 3 peptides and 1 peptides | Nucleus peptide [40]: 3 peptides | Nucleus spectra [40]: 5 spectra

human AID containing two tandem Flag tags (Flag-human AID) (from UniProt Q9GZX7 1-198) (enzyme)
Nucleus peptide [1]: 4 peptides | Nucleus spectra [1]: 11 spectra | Nucleus peptide [2]: 12 peptides | Nucleus spectra [2]: 25 spectra | Nucleus peptide [3]: 8 peptides | Nucleus spectra [3]: 17 spectra | Nucleus peptide [4]: 4 peptides | Nucleus spectra [4]: 5 spectra | Nucleus peptide [5]: 3 peptides | Nucleus spectra [5]: 4 spectra | Nucleus peptide [6]: 4 peptides | Nucleus spectra [6]: 9 spectra | Nucleus peptide [7]: 4 peptides | Nucleus spectra [7]: 9 spectra | Nucleus peptide [8]: 7 peptides | Nucleus spectra [8]: 28 spectra | Nucleus peptide [9]: 6 peptides | Nucleus spectra [9]: 13 spectra | Nucleus peptide [10]: 4 peptides | Nucleus spectra [10]: 9 spectra | Nucleus peptide [11]: 3 peptides | Nucleus spectra [11]: 7 spectra | Nucleus peptide [12]: 5 peptides | Nucleus spectra [12]: 7 spectra | Nucleus peptide [13]: 6 peptides | Nucleus spectra [13]: 13 spectra | Nucleus peptide [14]: 13 peptides | Nucleus spectra [14]: 30 spectra | Nucleus peptide [15]: 16 peptides | Nucleus spectra [15]: 44 spectra | Nucleus peptide [16]: 12 peptides | Nucleus spectra [16]: 37 spectra | Nucleus peptide [17]: 6 peptides | Nucleus spectra [17]: 9 spectra | Nucleus peptide [18]: 3 peptides | Nucleus spectra [18]: 9 spectra | Nucleus peptide [19]: 9 peptides | Nucleus spectra [19]: 21 spectra | Nucleus peptide [20]: 9 peptides | Nucleus spectra [20]: 22 spectra | Nucleus peptide [21]: 12 peptides | Nucleus spectra [21]: 24 spectra | Nucleus peptide [22]: 5 peptides | Nucleus spectra [22]: 21 spectra | Nucleus peptide [23]: 3 peptides | Nucleus spectra [23]: 3 spectra | Nucleus peptide [24]: 48 peptides | Nucleus spectra [24]: 94 spectra | Nucleus peptide [25]: 5 peptides | Nucleus spectra [25]: 12 spectra | Nucleus peptide [26]: 2 peptides | Nucleus spectra [26]: 5 spectra | Nucleus peptide [27]: 7 peptides | Nucleus spectra [27]: 16 spectra | Nucleus peptide [28]: 3 peptides | Nucleus spectra [28]: 5 spectra | Nucleus peptide [29]: 13 peptides | Nucleus spectra [29]: 37 spectra | Nucleus peptide [30]: 12 peptides | Nucleus spectra [30]: 31 spectra | Nucleus peptide [31]: 5 peptides | Nucleus spectra [31]: 8 spectra | Nucleus peptide [32]: 5 peptides | Nucleus spectra [32]: 8 spectra | Nucleus peptide [33]: 17 peptides | Nucleus spectra [33]: 26 spectra | Nucleus peptide [34]: 3 peptides | Nucleus spectra [34]: 9 spectra | Nucleus peptide [35]: 6 peptides | Nucleus spectra [35]: 11 spectra | Nucleus peptide [36]: 6 peptides | Nucleus spectra [36]: 12 spectra | Nucleus peptide [37]: 10 peptides | Nucleus spectra [37]: 18 spectra | Nucleus peptide [38]: 7 peptides | Nucleus spectra [38]: 16 spectra | Nucleus peptide [39]: 5 peptides and 2 peptides | Nucleus spectra [39]: 20 spectra and 8 spectra | Nucleus peptide [40]: 14 peptides | Nucleus spectra [40]: 49 spectra
